Test results published in IntAct's records for PubMed 11056176.

B1: snRNA-activating protein complex subunit 4 (Homo sapiens), Q5SXM2 (parent)
chain: MDVDAEREKITQEIKELERILDPGSSGSHVEISESSLESDSEADSLPSEDLDPADPPISEEERWGEASNDEDDPKDKTLPEDPETCLQLNMVYQEVIQEKLAEANLLLAQNREQQEELMRDLAGSKGTKVKDGKSLPPSTYMGHFMKPYFKDKVTGVGPPANEDTREKAAQGIKAFEELLVTKWKNWEKALLRKSVVSDRLQRLLQPKLLKLEYLHQKQSKVSSELERQALEKQGREAEKEIQDINQLPEEALLGNRLDSHDWEKISNINFEGSRSAEEIRKFWQNSEHPSINKQEWSREEEERLQAIAAAHGHLEWQKIAEELGTSRSAFQCLQKFQQHNKALKRKEWTEEEDRMLTQLVQEMRVGSHIPYRRIVYYMEGRDSMQLIYRWTKSLDPGLKKGYWAPEEDAKLLQAVAKYGEQDWFKIREEVPGRSDAQCRDRYLRRLHFSLKKGRWNLKEEEQLIELIEKYGVGHWAKIASELPHRSGSQCLSKWKIMMGKKQGLRRRRRRARHSVRWSSTSSSGSSSGSSGGSSSSSSSSSEEDEPEQAQAGEGDRALLSPQYMVPDMDLWVPARQSTSQPWRGGAGAWLGGPAASLSPPKGSSASQGGSKEASTTAAAPGEETSPVQVPARAHGPVPRSAQASHSADTRPAGAEKQALEGGRRLLTVPVETVLRVLRANTAARSCTQKEQLRQPPLPTSSPGVSSGDSVARSHVQWLRHRATQSGQRRWRHALHRRLLNRRLLLAVTPWVGDVVVPCTQASQRPAVVQTQADGLREQLQQARLASTPVFTLFTQLFHIDTAGCLEVVRERKALPPRLPQAGARDPPVHLLQASSSAQSTPGHLFPNVPAQEASKSASHKGSRRLASSRVERTLPQASLLASTGPRPKPKTVSELLQEKRLQEARAREATRGPVVLPSQLLVSSSVILQPPLPHTPHGRPAPGPTVLNVPLSGPGAPAAAKPGTSGSWQEAGTSAKDKRLSTMQALPLAPVFSEAEGTAPAASQAPALGPGQISVSCPESGLGQSQAPAASRKQGLPEAPPFLPAAPSPTPLPVQPLSLTHIGGPHVATSVPLPVTWVLTAQGLLPVPVPAVVSLPRPAGTPGPAGLLATLLPPLTETRAAQGPRAPALSSSWQPPANMNREPEPSCRTDTPAPPTHALSQSPAEADGSVAFVPGEAQVAREIPEPRTSSHADPPEAEPPWSGRLPAFGGVIPATEPRGTPGSPSGTQEPRGPLGLEKLPLRQPGPEKGALDLEKPPLPQPGPEKGALDLGLLSQEGEAATQQWLGGQRGVRVPLLGSRLPYQPPALCSLRALSGLLLHKKALEHKATSLVVGGEAERPAGALQASLGLVRGQLQDNPAYLLLRARFLAAFTLPALLATLAPQGVRTTLSVPSRVGSESEDEDLLSELELADRDGQPGCTTATCPIQGAPDSGKCSASSCLDTSNDPDDLDVLRTRHARHTRKRRRLV
partner: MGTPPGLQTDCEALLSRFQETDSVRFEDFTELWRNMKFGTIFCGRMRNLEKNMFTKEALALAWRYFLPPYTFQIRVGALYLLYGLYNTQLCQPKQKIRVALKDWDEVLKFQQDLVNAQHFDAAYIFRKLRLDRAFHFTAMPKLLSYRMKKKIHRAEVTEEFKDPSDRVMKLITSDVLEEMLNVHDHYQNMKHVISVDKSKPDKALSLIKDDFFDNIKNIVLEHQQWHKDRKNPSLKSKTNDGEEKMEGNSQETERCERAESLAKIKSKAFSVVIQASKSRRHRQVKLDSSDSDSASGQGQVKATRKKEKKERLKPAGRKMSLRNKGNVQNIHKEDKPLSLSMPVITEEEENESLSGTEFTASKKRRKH
B2: snRNA-activating protein complex subunit 4 (Homo sapiens), Q5SXM2 (parent)
chain: B1 chain
partner: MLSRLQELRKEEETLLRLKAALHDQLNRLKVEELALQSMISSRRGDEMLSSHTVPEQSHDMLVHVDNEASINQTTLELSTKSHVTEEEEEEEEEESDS
B3: snRNA-activating protein complex subunit 5 (Homo sapiens), O75971 (parent)
chain: B2 partner
partner: B1 chain

Variants of: B1
Conditions: with snpc1_human SNAPC1, Q16533

Variant | effect of a mutation on the interaction
L1355A;L1362A | disrupting interaction strength
L1301A;L1308A | decreasing interaction strength
L1297A;Q1304A | with no effect
L1314A | disrupting interaction strength
L1369A | decreasing interaction strength
L1364A | disrupting interaction strength
L1311A | decreasing interaction strength

Variants of: B2
Conditions: with snpc5_human SNAPC5, O75971

Variant | effect of a mutation on the interaction
L87A;Q94A | disrupting interaction strength
L101A;L108A | disrupting interaction strength
Q115L | disrupting interaction strength
Q115A;L122A | disrupting interaction strength
Q94A | disrupting interaction strength
Q94L | disrupting interaction strength
L89A;V96A | decreasing interaction strength

Variants of: B3
Conditions: with snpc4_human SNAPC4, Q5SXM2

Variant | effect of a mutation on the interaction
L15A;L22A | disrupting interaction strength
L8A | decreasing interaction strength
L18A | decreasing interaction strength
L29A;L36A | disrupting interaction strength
